Results published in the supplement of paper PMC7125110.
± gives the standard error. Variants at the floor of the assay were thinned out.

B1: glmS ribozyme (parent)
chain: AUAAAAGCGCCAGAACUACAGAAAUGUAGUUGACGAGGAGGAGGUUUAUCGAAUUUUCGGCGGAUGCCUCCAAA

Key:
Conditions in all cases: with glucosamine-6-phosphate
glucosamine-6-phosphate [1] = variants of: B1; experiment: self-cleavage kobs at 40 uM GlcN6P; higher = faster cleavage; RNA array
Method in brief: (§1)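 Barcoded ribozyme variants on sequenced MiSeq chips were transcribed in situ by E. coli RNA polymerase and followed at 37 °C through a hybridised Cy3 probe. Glucosamine-6-phosphate at 40 μM to 10 mM in HEPES/KCl/Mg(OAc)2 buffer was flowed in, and tiles were imaged over ~14 h. Signals were normalised to baseline and to non-cleaving reference variants, and per-tile medians were fit to one- or two-exponential decays to give kobs. Weighted Michaelis–Menten fits across concentrations gave kcat and KM.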

glucosamine-6-phosphate [2] = variants of: B1; experiment: self-cleavage kobs at 160 uM GlcN6P; higher = faster cleavage; RNA array
Method in brief: as §1

glucosamine-6-phosphate [3] = variants of: B1; experiment: self-cleavage kobs at 640 uM GlcN6P; higher = faster cleavage; RNA array
Method in brief: as §1

glucosamine-6-phosphate [4] = variants of: B1; experiment: self-cleavage kobs at 2500 uM GlcN6P; higher = faster cleavage; RNA array
Method in brief: as §1

glucosamine-6-phosphate [5] = variants of: B1; experiment: self-cleavage kobs at 10000 uM GlcN6P; higher = faster cleavage; RNA array
Method in brief: as §1

Variant | self-cleavage kobs at 40 uM GlcN6P (glucosamine-6-phosphate [1]) [s⁻¹] | self-cleavage kobs at 160 uM GlcN6P (glucosamine-6-phosphate [2]) [s⁻¹] | self-cleavage kobs at 640 uM GlcN6P (glucosamine-6-phosphate [3]) [s⁻¹] | self-cleavage kobs at 2500 uM GlcN6P (glucosamine-6-phosphate [4]) [s⁻¹] | self-cleavage kobs at 10000 uM GlcN6P (glucosamine-6-phosphate [5]) [s⁻¹]
G63C G66C | < 1e-05 | < 1e-05 | < 1e-05 | < 1e-05 | < 1e-05
A64U C71A | < 1e-05 | – | – | – | 3.22e-05 ± 1.4e-05
G60U U69C | < 1e-05 | < 1e-05 | < 1e-05 | – | < 1e-05
G63U C67G | < 1e-05 | < 1e-05 | – | – | < 1e-05
A6C G9A U45A | – | < 1e-05 | < 1e-05 | – | –
A6G G38C U49A | – | < 1e-05 | < 1e-05 | – | –
C8A A42U U45G | – | < 1e-05 | < 1e-05 | < 1e-05 | –
C8G G37U G51U | – | < 1e-05 | < 1e-05 | – | –
G60A U65C | < 1e-05 | < 1e-05 | – | < 1e-05 | < 1e-05
A6U A12C A36C G38C C71U | – | < 1e-05 | < 1e-05 | < 1e-05 | –
A6U U45C | – | < 1e-05 | < 1e-05 | – | –
G7A A12C U57A | – | < 1e-05 | < 1e-05 | < 1e-05 | –
G7U A12C G41A | – | < 1e-05 | – | < 1e-05 | –
C8U A12C A42U A53U C61A | – | < 1e-05 | < 1e-05 | < 1e-05 | –
G62C | < 1e-05 | < 1e-05 | < 1e-05 | < 1e-05 | < 1e-05
A6U U31G G41U A64C | – | < 1e-05 | < 1e-05 | < 1e-05 | –
C68A C70A | < 1e-05 | – | – | – | –
A6C C10A | – | < 1e-05 | < 1e-05 | < 1e-05 | < 1e-05
U65C C68U C71U | < 1e-05 | – | – | – | –
G7C C58A | – | < 1e-05 | < 1e-05 | < 1e-05 | < 1e-05
A6G A14C A42G U49G | – | < 1e-05 | – | – | –
U2C U56C | – | 0.000197 ± 5.4e-05 | 0.000865 ± 0.00022 | 0.00287 ± 0.00077 | –
C8A C61U A64C C67U | – | < 1e-05 | < 1e-05 | < 1e-05 | –
C8U C16U U54A C61A C71U | – | < 1e-05 | < 1e-05 | – | –
G7U A12U U56G | – | < 1e-05 | < 1e-05 | – | –
G7U A15G G32A | – | < 1e-05 | < 1e-05 | – | –
A6U U30G G62U | – | < 1e-05 | < 1e-05 | – | –

Variant | self-cleavage kobs at 40 uM GlcN6P (glucosamine-6-phosphate [1]) [s⁻¹] | self-cleavage kobs at 160 uM GlcN6P (glucosamine-6-phosphate [2]) [s⁻¹] | self-cleavage kobs at 640 uM GlcN6P (glucosamine-6-phosphate [3]) [s⁻¹] | self-cleavage kobs at 2500 uM GlcN6P (glucosamine-6-phosphate [4]) [s⁻¹] | self-cleavage kobs at 10000 uM GlcN6P (glucosamine-6-phosphate [5]) [s⁻¹]
A73U | 0.00108 ± 0.00026 | – | – | 0.00477 ± 0.0019 | 0.0245 ± 0.0093
G7U C19U G38U | – | < 1e-05 | – | < 1e-05 | –
C8G G62C | – | < 1e-05 | – | – | 3.7e-05 ± 8.1e-06
C8A G44C | – | < 1e-05 | < 1e-05 | < 1e-05 | –
A6U C10G A52G U56G | – | < 1e-05 | – | < 1e-05 | –
G7U A12G G32U | – | < 1e-05 | – | – | –
C61A G62C G63U C71A | < 1e-05 | – | – | – | < 1e-05
G7U G13U | – | < 1e-05 | – | < 1e-05 | < 1e-05
G59A A64G U69G | < 1e-05 | – | – | – | –
G7U A15U G51U C61U C67G | – | < 1e-05 | < 1e-05 | – | –
G7U G66A | – | < 1e-05 | – | – | < 1e-05
G60U G63U | < 1e-05 | < 1e-05 | < 1e-05 | – | < 1e-05
G60U G63A | < 1e-05 | < 1e-05 | – | – | –
A6U A42C A53C U65G | – | < 1e-05 | < 1e-05 | < 1e-05 | –
G60U C71U | < 1e-05 | < 1e-05 | < 1e-05 | – | < 1e-05
G7U G37C G40A | – | < 1e-05 | < 1e-05 | – | –
G59A A64U C67G | < 1e-05 | – | – | – | –
C61U U65C | < 1e-05 | – | < 1e-05 | < 1e-05 | < 1e-05
G7C A14G C61U | – | < 1e-05 | – | – | –
A6G G41A A42U A64U | – | < 1e-05 | – | < 1e-05 | –
G7U A12C U54A C58A C70G | – | < 1e-05 | – | < 1e-05 | –
G60U G62C A64C | < 1e-05 | – | < 1e-05 | – | –
C8G G38A A48U C61U | – | < 1e-05 | – | – | –
A6G C11A A14U G40A | – | < 1e-05 | – | – | –
A6C A39C C70U | – | < 1e-05 | – | < 1e-05 | –
C8G G51C C68G | – | < 1e-05 | < 1e-05 | – | –
